Legend:
[1] = system: Pseudomonas aeruginosa; details: rat model of CF, after seven days of treatment (Cantin and Woods 1999); cited from earlier work
[2] = about 840 mg BPTI, 80 open-heart surgery patients (Fraedrich et al.); cited from earlier work
[3] = target: human plasma kallikrein (Homo sapiens, UniProt P03952); assay: DX-88 inhibition of human plasma kallikrein; assay type: biochemical
[4] = Serum half-time of DX-88; details: in vivo
[5] = DX-88 tested in the clinic for treatment of hereditary angioedema (HAE); assay type: in vivo, human
[6] = rabbit, in vivo
Source text: (§1) After radiolabeling, the two labeled protein preparations were purified from unbound label by size exclusion chromatography (SEC). Fractions from the SEC column having the highest radioactivity were pooled. The purified, radiolabeled preparations were characterized for specific activity by scintillation counting and for purity by SEC using a Superose-12 column equipped with an in-line radiation detector.
(§2) New Zealand White rabbits (ca. 2.5 Kg) were used for clearance measurements, with one animal each used for of the two labeled protein preparations. The radiolabeled preparation was injected into the animal via an ear vein. One blood sample was collected per animal per time point with early time points at approximately 0, 7, 15, 30, and 90 minutes and later time points at 4, 8, 16, 24, 48, 72, 96, 144, 168, and 192 hours. Samples (about 0.5 ml) were collected into anticoagulant (EDTA) tubes. Cells were separated from the plasma/serum fraction by centrifugation. The plasma fraction was divided into two aliquots. One plasma aliquot was stored at −70° C. and the other aliquot was kept at 4° C. for immediate analyses. Sample analyses included radiation counting for clearance rate determinations and SEC chromatography for in vivo stability.

[7] = target: T1, human neutrophil elastase (Homo sapiens, UniProt P08246); details: Table 4, Biological Activity; read-out: Inhibition of human neutrophil elastase, Ki; cited from earlier work
T1 sequence (P08246 30-267): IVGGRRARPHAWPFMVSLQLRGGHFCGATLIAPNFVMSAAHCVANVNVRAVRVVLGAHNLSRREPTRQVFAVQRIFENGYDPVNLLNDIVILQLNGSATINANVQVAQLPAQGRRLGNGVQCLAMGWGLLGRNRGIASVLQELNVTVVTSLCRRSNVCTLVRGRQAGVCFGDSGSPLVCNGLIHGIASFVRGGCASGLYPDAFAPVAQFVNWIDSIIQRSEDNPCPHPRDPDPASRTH

[8] = Pharmacokinetic study in rabbits: plasma clearance of 125I-labeled protein, SEC of plasma
Source text: as §1, §2

Chain of human plasma kallikrein (P03952 391-638 limits assumed): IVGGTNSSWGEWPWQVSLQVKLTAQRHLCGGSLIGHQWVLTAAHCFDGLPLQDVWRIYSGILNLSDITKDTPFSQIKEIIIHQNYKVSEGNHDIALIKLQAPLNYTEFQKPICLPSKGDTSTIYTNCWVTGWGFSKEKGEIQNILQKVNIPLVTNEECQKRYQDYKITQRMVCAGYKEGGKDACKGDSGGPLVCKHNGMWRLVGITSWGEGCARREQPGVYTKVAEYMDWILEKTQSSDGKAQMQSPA
Chain of human plasma kallikrein (P03952 20-390 partner limits assumed): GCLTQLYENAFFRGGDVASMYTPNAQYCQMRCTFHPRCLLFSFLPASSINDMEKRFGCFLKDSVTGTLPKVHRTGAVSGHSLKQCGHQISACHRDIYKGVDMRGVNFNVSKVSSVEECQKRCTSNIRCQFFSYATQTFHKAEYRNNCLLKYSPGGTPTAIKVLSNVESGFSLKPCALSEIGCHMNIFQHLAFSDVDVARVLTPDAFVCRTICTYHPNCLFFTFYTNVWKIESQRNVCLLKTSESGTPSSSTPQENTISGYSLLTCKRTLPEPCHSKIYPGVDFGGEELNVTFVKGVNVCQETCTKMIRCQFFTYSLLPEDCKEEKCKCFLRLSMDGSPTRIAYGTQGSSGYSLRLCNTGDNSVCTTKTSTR

For alpha1 antitrypsin, the bacterial counts [1] is given as 0.2±0.4.

For “bovine pancreatic trypsin inhibitor [BPTI]”, the “decrease of mean amount transfused” value [2] is listed as 74% and the “reduction of blood loss” value [2] is listed as “almost half”.

With “DX-88: Kunitz domain derived from the first Kunitz domain of human LACI, inhibits human plasma kallikrein, SEQ ID NO:48 (EAMHSFCAFKADDGPCRAAHPRWFFNIFTRQCEEFIYGGCEGNQNRFESLEECKKMCTRD; Description of Sequence DX-88 Kunitz domain peptide)” the Ki [3] was roughly 0.04 nM, the serum half-time [4] was “not more than 1 hour” and the “initial clinical data in HAE” value [5] was “safe and effective”.

For “DX-890: Kunitz domain peptide, inhibitor of human neutrophil elastase, SEQ ID NO:20 (EACNLPIVRGPCIAFFPRWAFDAVKGKCVLFPYGGCQGNGNKFYSEKECREYCGVP; Description of Sequence DX-890 Kunitz domain peptide)”, the “% α” value [6] is listed as 75%, the “% β” value [6] is listed as 25% and the Ki [7] is listed as roughly 0.005 nM. The “in vivo stability by SEC analysis of plasma” value ([8]; FIG. 6) was “relatively rapid association of label with higher molecular weight plasma components” and the T1/2β ([8]; restated in hours) was 2.75 h.

— US20110092413A1, “Albumin-Fused Kunitz Domain Peptides” (Novozymes Biopharma DK A/S, priority 2002, published 2011)
